{"source": "paper doi:10.1101/2023.11.02.565309", "about": "(bioRxiv, 2023)", "proteins": {"B1": {"name": "ligand-binding domain of GluK2 (GluK2-LBD), S1-GT-S2 construct (domain or fragment, Rattus norvegicus)", "chain": "NRSLIVTTILEEPYVLFKKSDKPLYGNDRFEGYCIDLLRELSTILGFTYEIRLVEDGKYGAQDDVNGQWNGMVRELIDHKADLAVAPLAITYVREKVIDFSKPFMTLGISILYRKGTPIDSADDLAKQTKIEYGAVEDGATMTFFKKSKISTYDKMWAFMSSRRQSVLVKSNEEGIQRVLTSDYAFLMESTTIEFVTQRNCNLTQIGGLIDSKGYGVGTPMGSPYRDKITIAILQLQEEGKLHMMKEKWWRGNGCP"}}, "target": "the molecule itself", "assay": "crystal structure"}
{"protein": "B1", "values": [{"measurement": "stoichiometry N", "result": 2}]}
